Measured values reported in patent US20240117018A1.

Experiments:
Test in all cases: cell-based or functional assay
[1] = target: HIV-1 Env of pseudovirus CAAN5342.A2 (HIV-1)
[2] = target: HIV-1 Env of pseudovirus WITO4160.33 (HIV-1)
[3] = target: HIV-1 Env of pseudovirus 191955_A11 (HIV-1)
[4] = target: HIV-1 Env of pseudovirus CNE17 (HIV-1)
[5] = target: HIV-1 Env of pseudovirus CNE52 (HIV-1)
[6] = target: HIV-1 Env of pseudovirus TRO.11 (HIV-1)
[7] = target: HIV-1 Env of pseudovirus 6535.3 (HIV-1)
[8] = target: HIV-1 Env of pseudovirus Ce1172_H1 (HIV-1)
[9] = target: HIV-1 Env of pseudovirus 6244_13_B5_4576 (HIV-1)
[10] = target: HIV-1 Env of pseudovirus CNE20 (HIV-1)
[11] = target: HIV-1 Env of pseudovirus CNE30 (HIV-1)
[12] = target: HIV-1 Env of pseudovirus MS208.A1 (HIV-1)
[13] = target: HIV-1 Env of pseudovirus Ce2010_F5 (HIV-1)
[14] = target: HIV-1 Env of pseudovirus CNE19 (HIV-1)
[15] = target: HIV-1 Env of pseudovirus 928-28 (HIV-1)
[16] = target: HIV-1 Env of pseudovirus AC10.0.29 (HIV-1)
[17] = target: HIV-1 Env of pseudovirus CNE53 (HIV-1)
[18] = target: HIV-1 Env of pseudovirus 62357_14_D3_4589 (HIV-1)
[19] = target: HIV-1 Env of pseudovirus ZM53M.PB12 (HIV-1)
[20] = target: HIV-1 Env of pseudovirus SC05_8C11_2344 (HIV-1)
[21] = target: HIV-1 Env of pseudovirus Ce2060_G9 (HIV-1)
[22] = target: HIV-1 Env of pseudovirus ZM197M.PB7 (HIV-1)
[23] = target: HIV-1 Env of pseudovirus ZM135M.PL10a (HIV-1)
[24] = target: HIV-1 Env of pseudovirus Q842.d12 (HIV-1)
[25] = target: HIV-1 Env of pseudovirus Q461.e2 (HIV-1)
[26] = target: HIV-1 Env of pseudovirus Du422.1 (HIV-1)
[27] = target: HIV-1 Env of pseudovirus Q259.d2.17 (HIV-1)
[28] = target: HIV-1 Env of pseudovirus ZM247v1(Rev-) (HIV-1)
[29] = target: HIV-1 Env of pseudovirus PVO.4 (HIV-1)
[30] = target: HIV-1 Env of pseudovirus ZM233M.PB6 (HIV-1)
[31] = target: HIV-1 Env of pseudovirus CAP45.2.00.G3 (HIV-1)
[32] = target: HIV-1 Env of pseudovirus SC422661.8 (HIV-1)
[33] = target: HIV-1 Env of pseudovirus 6811.v7.c18 (HIV-1)
[34] = target: HIV-1 Env of pseudovirus 6480.v4.c25 (HIV-1)
[35] = target: HIV-1 Env of pseudovirus 235-47 (HIV-1)
[36] = target: HIV-1 Env of pseudovirus BJOX015000.11.5 (HIV-1)
[37] = target: HIV-1 Env of pseudovirus 3817.v2.c59 (HIV-1)
[38] = target: HIV-1 Env of pseudovirus X1632_S2_B10 (HIV-1)

3BNC117 (antibody) gave an IC50 [1] of 0.42 µg/mL, an IC80 [1] of 1.51 µg/mL and an IC50 [2] of 0.01 µg/mL. It also gave an IC80 [2] of 0.04 µg/mL, an IC50 [3] greater than 50 µg/mL and an IC80 [3] greater than 50 µg/mL. For the same substance, the IC50 [4] was 5.76 µg/mL, the IC80 [4] was 43 µg/mL and the IC50 [5] was 0.02 µg/mL. It also gave an IC80 [5] of 0.06 µg/mL, an IC50 [6] of less than 0.09 µg/mL and an IC80 [6] of less than 0.09 µg/mL. It also gave an IC50 [7] of 0.55 µg/mL, an IC80 [7] of 2.44 µg/mL and an IC50 [8] greater than 50 µg/mL. The IC80 [8] was greater than 50 µg/mL, the IC50 [9] was 0.04 µg/mL and the IC80 [9] was 0.15 µg/mL. The IC50 [10] was greater than 50 µg/mL, the IC80 [10] was greater than 50 µg/mL and the IC50 [11] was 0.26 µg/mL. For the same substance, the IC80 [11] was 0.85 µg/mL, the IC50 [12] was 0.01 µg/mL and the IC80 [12] was 0.09 µg/mL. It also gave an IC50 [13] of 0.05 µg/mL, an IC80 [13] of 0.21 µg/mL and an IC50 [14] of 0.02 µg/mL. The IC80 [14] was 0.08 µg/mL, the IC50 [15] was 0.15 µg/mL and the IC80 [15] was 0.55 µg/mL. The IC50 [16] was 13.8 µg/mL, the IC80 [16] was greater than 50 µg/mL and the IC50 [17] was 0.08 µg/mL. The IC80 [17] was 0.99 µg/mL, the IC50 [18] was 0.06 µg/mL and the IC80 [18] was 0.26 µg/mL. The IC50 [19] was 0.21 µg/mL, the IC80 [19] was 0.85 µg/mL and the IC50 [20] was 0.15 µg/mL. It also gave an IC80 [20] of 0.51 µg/mL, an IC50 [21] of 0.24 µg/mL and an IC80 [21] of 0.81 µg/mL. The IC50 [22] was 0.22 µg/mL, the IC80 [22] was 1.03 µg/mL and the IC50 [23] was 0.03 µg/mL. It also gave an IC80 [23] of 0.13 µg/mL, an IC50 [24] of less than 0.01 µg/mL and an IC80 [24] of 0.01 µg/mL. It also gave an IC50 [25] of 0.03 µg/mL, an IC80 [25] of 0.09 µg/mL and an IC50 [26] greater than 50 µg/mL. The IC80 [26] was greater than 50 µg/mL, the IC50 [27] was 0.01 µg/mL and the IC80 [27] was 0.05 µg/mL. It also gave an IC50 [28] greater than 50 µg/mL, an IC80 [28] greater than 50 µg/mL and an IC50 [29] of less than 0.09 µg/mL. For the same substance, the IC80 [29] was 0.19 µg/mL, the IC50 [30] was 0.13 µg/mL and the IC80 [30] was 0.85 µg/mL. It also gave an IC50 [31] of 3.88 µg/mL, an IC80 [31] greater than 50 µg/mL and an IC50 [32] of 0.02 µg/mL. The IC80 [32] was 0.08 µg/mL.

8ANC195 (antibody) was tested, and the IC50 [1] was greater than 50 µg/mL, the IC80 [1] was greater than 50 µg/mL and the IC50 [2] was greater than 50 µg/mL. For the same substance, the IC80 [2] was greater than 50 µg/mL, the IC50 [3] was greater than 50 µg/mL and the IC80 [3] was greater than 50 µg/mL. The IC50 [4] was 2.59 µg/mL, the IC80 [4] was 11.1 µg/mL and the IC50 [5] was 5.59 µg/mL. For the same substance, the IC80 [5] was 43.1 µg/mL, the IC50 [6] was 0.18 µg/mL and the IC80 [6] was 0.89 µg/mL. For the same substance, the IC50 [7] was 0.2 µg/mL, the IC80 [7] was 0.91 µg/mL and the IC50 [8] was 42.3 µg/mL. The IC80 [8] was greater than 50 µg/mL, the IC50 [9] was greater than 50 µg/mL and the IC80 [9] was greater than 50 µg/mL. The IC50 [10] was 0.5 µg/mL, the IC80 [10] was 3.19 µg/mL and the IC50 [11] was 7.52 µg/mL. It also gave an IC80 [11] of 40.5 µg/mL, an IC50 [12] greater than 50 µg/mL and an IC80 [12] greater than 50 µg/mL. It also gave an IC50 [13] greater than 50 µg/mL, an IC80 [13] greater than 50 µg/mL and an IC50 [14] of 0.29 µg/mL. It also gave an IC80 [14] of 1.73 µg/mL, an IC50 [15] greater than 50 µg/mL and an IC80 [15] greater than 50 µg/mL. For the same substance, the IC50 [16] was 0.88 µg/mL, the IC80 [16] was 7 µg/mL and the IC50 [17] was greater than 50 µg/mL. The IC80 [17] was greater than 50 µg/mL, the IC50 [18] was greater than 50 µg/mL and the IC80 [18] was greater than 50 µg/mL. It also gave an IC50 [19] greater than 30 µg/mL, an IC80 [19] greater than 30 µg/mL and an IC50 [20] of 0.47 µg/mL. It also gave an IC80 [20] of 3.06 µg/mL, an IC50 [21] of 6.2 µg/mL and an IC80 [21] greater than 50 µg/mL. It also gave an IC50 [22] of 23.4 µg/mL, an IC80 [22] greater than 50 µg/mL and an IC50 [23] greater than 50 µg/mL. It also gave an IC80 [23] greater than 50 µg/mL, an IC50 [24] greater than 30 µg/mL and an IC80 [24] greater than 30 µg/mL. It also gave an IC50 [25] of 0.63 µg/mL, an IC80 [25] of 2.51 µg/mL and an IC50 [26] greater than 50 µg/mL. It also gave an IC80 [26] greater than 50 µg/mL, an IC50 [27] greater than 50 µg/mL and an IC80 [27] greater than 50 µg/mL. It also gave an IC50 [28] of 3.41 µg/mL, an IC80 [28] of 25.1 µg/mL and an IC50 [29] of 0.52 µg/mL. The IC80 [29] was 1.87 µg/mL, the IC50 [30] was 7.39 µg/mL and the IC80 [30] was 43.5 µg/mL. It also gave an IC50 [31] of 28.3 µg/mL, an IC80 [31] greater than 50 µg/mL and an IC50 [32] of 0.29 µg/mL. The IC80 [32] was 4.67 µg/mL.

10-1074 (antibody) showed an IC50 neutralization (TZM.bl) [33] of 0.002 µg/mL, an IC80 neutralization (TZM.bl) [33] of 0.01 µg/mL and an IC50 neutralization (TZM.bl) [34] of 0.009 µg/mL. For the same substance, the IC80 neutralization (TZM.bl) [34] was 0.041 µg/mL, the IC50 neutralization (TZM.bl) [35] was 0.05 µg/mL and the IC80 neutralization (TZM.bl) [35] was 0.163 µg/mL. It also gave an IC50 neutralization (TZM.bl) [36] greater than 50 µg/mL, an IC80 neutralization (TZM.bl) [36] greater than 50 µg/mL and an IC50 neutralization (TZM.bl) [37] of 3.15 µg/mL. It also gave an IC80 neutralization (TZM.bl) [37] of 14.9 µg/mL, an IC50 neutralization (TZM.bl) [38] greater than 50 µg/mL and an IC80 neutralization (TZM.bl) [38] greater than 50 µg/mL.

10E8 (antibody) was tested, and the IC50 neutralization (TZM.bl) [33] was 7.54 µg/mL, the IC80 neutralization (TZM.bl) [33] was greater than 10 µg/mL and the IC50 neutralization (TZM.bl) [34] was 8.08 µg/mL. The IC80 neutralization (TZM.bl) [34] was greater than 10 µg/mL, the IC50 neutralization (TZM.bl) [35] was 0.384 µg/mL and the IC80 neutralization (TZM.bl) [35] was 2.07 µg/mL. The IC50 neutralization (TZM.bl) [36] was 0.051 µg/mL, the IC80 neutralization (TZM.bl) [36] was 1.91 µg/mL and the IC50 neutralization (TZM.bl) [37] was 1.18 µg/mL. It also gave an IC80 neutralization (TZM.bl) [37] of 5.98 µg/mL, an IC50 neutralization (TZM.bl) [38] of 1.98 µg/mL and an IC80 neutralization (TZM.bl) [38] of 9.68 µg/mL.
